This is an account of results in patent EP4772538A1.

The target in this test is CD3D-CD3E-mFc (human; mouse). In words: SPR, Biacore T200, method of Section 3.1; affinity for CD3D-CD3E-mFc. (In general: Surface plasmon resonance follows binding to a sensor surface in real time, without labels.)

What is called Kd is the concentration at which binding is half-saturated. As a reminder, the koff is a measure of how fast the partners let go of each other. A high value points to fast dissociation. The term kon denotes the rate constant with which the complex forms. High values mean fast association, low ones slow association. For “TCR/CD3 bispecific molecule IMC-C103C (control bifunctional molecule)”, the Kd amounted to 1.08 nM, the koff turned out to be 0.00028 s⁻¹ and the kon was 258000 M⁻¹ s⁻¹.
